According to the Human Domainome abundance scans (Beltran et al. 2025):

B1: Protein S100-G, residues 1 to 79; numbered along this chain, P02633 (parent)
chain: MSAKKSPEELKGIFEKYAAKEGDPNQLSKEELKLLLQTEFPSLLKGPSTLDELFEELDKNGDGEVSFEEFQVLVKKISQ

Variants of: B1
Experiment: abundance fitness (aPCA) (normalised: wild type 0, dead -1); higher = more abundant; growth selection in yeast, the domain comes from the species named
Settings: Bos taurus

Abundance fitness, by site and new letter:
P47: A 0.094 | T 0.085 | L -0.027 | C 0.04 | M -0.004 | G -0.023 | Q 0.051 | K -0.09 | R -0.05 | V 0.082 | Y 0.042 | S 0.073 | D -0.02 | F -0.015 | W -0.01
P41: R -0.059 | W -0.115 | Y -0.037 | T 0.001 | V -0.129 | S 0.055
E55: A -0.045 | R 0.001 | V -0.012 | G 0.02 | F 0.055 | H 0.005 | P 0.012 | Y 0.058 | L 0.04 | D 0.033 | C -0.014 | K -0.047 | T 0.005 | W 0.011 | I -0.035 | Q 0.031 | M 0.004 | S -0.024
E52: V -0.024 | D -0.056 | N -0.002 | T 0.064 | A -0.005 | Y -0.108 | I -0.042 | K 0.022 | L -0.001 | S -0.009 | M -0.031 | W -0.084 | F -0.068 | Q -0.023 | G 0.026 | R -0.046 | P -0.037 | H 0.04 | C -0.122
L50: Q -0.028 | E 0.007 | V 0.082 | D -0.068 | M -0.01 | R -0.044 | G -0.078 | C 0.042 | F -0.026 | P -0.059 | T -0.013 | I 0.009 | N -0.094 | S -0.034 | Y 0.024 | K -0.001 | A -0.044
T49: P -0.051 | W -0.076 | K -0.103 | G -0.043 | S 0.018 | E -0.026 | D -0.08 | R -0.057 | I -0.021 | F 0.032 | Y 0 | H 0.047 | C -0.12 | A 0.007 | Q 0.04 | M -0.081 | N -0.109
D58: C -0.022 | F 0.054 | N -0.053 | S 0.025 | M -0.026 | V -0.058 | T 0.021 | Y -0.008 | R -0.072 | E -0.109 | P -0.078 | G 0.007 | A -0.107 | I 0.027 | W -0.027 | K -0.008 | H -0.096 | L 0.054 | Q 0.068
S42: H -0.087 | D -0.046 | G -0.023 | V -0.058 | Y -0.047 | M -0.07 | A -0.011 | K 0.061 | W -0.098 | C -0.074 | R -0.056 | F -0.049 | T 0.084 | P 0.008 | I -0.035 | N -0.009 | E 0.116
D51: G -0.044 | P 0.032 | Y -0.145 | N 0.032 | F -0.121 | C 0.011 | I -0.08 | A -0.032 | S -0.032 | L -0.072 | R -0.07 | W -0.142 | M 0.005 | E -0.07 | K -0.043 | Q -0.091 | V -0.032
L57: M 0.054 | W 0.032 | R -0.015 | N -0.042 | G -0.117 | H -0.031 | F -0.014 | C 0.024 | E -0.044 | A 0.079 | S 0.013 | P -0.012 | Q 0.021 | D 0.081 | Y 0.03 | K -0.071 | I 0.156
L53: F 0.077 | M 0.015 | K -0.033 | I 0.041 | T 0.036 | E 0.031 | Q 0.028 | G -0.065 | C -0.048 | R -0.031 | N 0.109 | W 0.013 | D 0.053 | V 0.028 | H 0.026 | Y -0.036 | P 0.033 | A 0.055
L44: T 0.035 | M -0.059 | S -0.047 | H -0.035 | V 0.02 | I 0.033 | Q -0.037 | F -0.006 | A 0.071 | R -0.024 | D 0.033 | Y 0.033 | W 0.115 | E 0.058 | N 0.058 | P 0.08 | G -0.047 | C 0.002
K45: A -0.442 | D 0.07 | Y -0.062 | M 0.002 | W -0.012 | L -0.018 | V -0.029 | T -0.005 | E 0.005 | C -0.066 | Q 0.042 | R 0.002 | N -0.022 | H 0.003 | P 0.003
E56: H -0.005 | C 0.065 | G -0.006 | A -0.042 | T 0.001 | M -0.045 | Y -0.06 | W -0.076 | P 0.094 | I -0.208 | S 0.002 | K -0.071 | Q -0.053 | R -0.02 | L -0.082
G46: R -0.008 | E -0.025 | I 0 | C -0.023 | L 0.02 | M 0.053 | H 0.039 | N 0.037 | Y 0.011 | W -0.087 | D 0.028 | A 0.042 | K -0.001 | Q -0.008 | S -0.017 | T 0.007 | P -0.041 | F -0.005
N60: H -0.05 | I 0 | Q -0.043 | R 0.014 | P 0.004 | E 0.108 | G 0.027 | M -0.164 | L -0.034 | S 0.04 | C -0.102 | D 0.058 | A 0.101 | K -0.105 | F -0.156
K59: V 0.087 | L 0.052 | M 0.085 | W 0.065 | N 0.009 | F 0.098 | I -0.105 | G 0.093 | Y -0.079 | Q -0.009 | S 0.009 | R -0.003 | E -0.005 | A 0.055 | T 0.007 | D -0.022 | C 0.021 | H 0.013
F54: R -0.093 | S 0.023 | P -0.073 | N 0.039 | C -0.004 | K -0.048 | E -0.033 | T 0.03 | A -0.007 | Q 0.004 | L 0.04 | W 0.04 | Y 0.064 | V -0.015 | M 0.007 | H -0.054 | D 0.035 | G -0.038 | I 0.051
S48: V -0.032 | Q 0.086 | F -0.062 | R 0.038 | P 0.015 | H -0.023 | A 0 | C -0.156 | E 0.042 | M -0.056 | D -0.138 | W -0.048 | Y 0.016 | T -0.029 | L -0.01 | G -0.042 | K 0.055 | I 0.005
L43: Y 0.015 | T -0.07 | Q 0.028 | C -0.018 | M 0.011 | K -0.001 | A 0.013 | F -0.02 | W -0.035 | E 0.105 | R -0.077 | V 0.057 | N -0.094 | I -0.012 | D -0.119 | S 0.023 | H -0.034 | P -0.032
